Test results: the domain aggregation screens of Martell et al. (2025)

Experiment: soluble fraction after stress (log2 fold change); higher = more stays soluble; pooled small domains, quantitative proteomics
Settings: stress: 50 degC
How it was run: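 Quantitative proteomics served as the high-throughput read-out for pooled custom libraries of small protein domains. Each was stressed at 50°C. Aggregation propensity is expressed as the base-two log fold change in soluble protein after stress. A higher value means a larger share of the protein remains in solution.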

| Sequence | soluble fraction (log2) |
| --- | --- |
| HMSPAVSLITGKLGAETYYKQGLKKAKEKDYEGALDDLIKAYEFFPDKKIKTQVDKLASFLGKPPIL | 0.0669 |
| HMEPTIGTATVTSGSRLNMRSAKSTSASVVTRIPSGATVGVISYASDWSKVTYNGYTGYVSSPYISMNG | -0.198 |
| HMSFNTNENKNLLWELMNKHNLFKDIDNQHYQEVQKLFEEEIVFISNNNKSLDLVEQNKKFLSSIITKLNK | -1.41 |
| HMGRGAAKGPLKELGLDPVTGRPLVVKDGKFGMYVTDGETNAGLRRGDLVEQLTLDRGMELLAERRARADQ | 0.203 |
| HMSEDTYNTLTKGTRVYNGVDYGAKYGYNPLYYFLNYNDLRIAYGADPAKLVEHYALFGIKENRVANRQIT | -0.098 |
| HMSAITLDQARAIALDHAGISEGDATFVKEQTGTSSYEIEFYSGSNEYDYEIDKATGAILNVDR | 0.0269 |
| HMRAMWENLFFQYKEGFLPEEYYKQGIATGIRLAGPKFVEMNIPMQKEFEDEVHRLLAEHEKSVK | -0.748 |
| HMKNIMRQWIELEPDQGKIRSKLYSLDRVVEETTNEVGMIKLLLEIDEKELNNLVSHNDIRLV | -0.21 |
| HMGYNDQEVKSNLITLLSTSKTGLSGVEISAQLGINRVTMTKFLNVFAAEGIIKQKNIGNLNLWLVEEGTE | -1.58 |
| HMPPNPELGKKLLKLRKEFKMTQDDVANILGMSRTSFSKYENGIANPPLQVMRKLASIYNVGLEYLI | -1.04 |
| HMLTLAVPNSINMRLDKYLSENIDYLSRSKIQGLINDGKVTINGENEKSSYKLNGDESIVIYYEE | -0.0746 |
| HMPAVTEQTKTNLRRAFWQLYEQKPIQKITVKQITDLAGYNRGTFYLYFKDVYDLLDDIENK | -0.704 |
| HMTRVDKLQTWLSLPREQRDWDEGALMLLQLTGNKIMYRNLSVNPEGKANFIEGKLQQYLEFRLA | -1.26 |
| HMSTTALLEKMVRYIRTLPVISQVVLSLHYYRGMELREIASELDITESRASQLHTTAVLGIRDLLSSY | -3.33 |
| HMPELSPEERAIIETLQKNNDLQVNIIAIKTGMDMGSLSAVLFDLEMKGLVKLLAGGMYHLI | -0.148 |
| HMGAGFREAIPPALDGERIDRVVSLLAYVSRNRAAGALAAGSVSVDGEVVFQRSRRVREGEELVVTGFERE | -0.97 |
| HMSLSKEEFETISKQVLELAGAGPIPVKELLQKMERTSKEKAWKVIEFLQAEDKIVPDATGRIQL | -0.068 |
| HMGSWEDALKNWVDSALASGQKGILEQAVPKFERIMIETALTHTAGRRRDASLLLGWGRNTLTRKIKELGI | -0.214 |
| HMPETAQLTDIQVSRSQAHTGIFSLHYYLTGTDSRGERVRLEISGDDYTRLSGSSSVTVEYYRHTGRIVRY | -1.55 |
| HMRGFGEVGQLPSGRYRARYTGPDGGRHSAPITFVARIDAEGWLVDQERMISRGEWEPPARQ | -0.224 |
| HMDSILSIVGGEESYKALLAWAENNISQQELQQLETILKSGNVPAIKRVLVTLMNRFNQAQS | -0.147 |
| HMGPKALLKIPGLQEVDAELLFKEGYKSISAVASADPEMLKAIPGVDEQKVTEWVTGAEQILSQQVNKGA | 0.342 |
| HMAKRPRFEDVIKEINTEIQKRKGKWNLTILSWMDFDDVAQVIRIHIYRKWHLYDPSKPLGPWLNR | 0.0232 |
| HMFRPRIEPGAKGSYVLEVQKRLAKLGYEHAGFDGVYGPGTERAIMQLQRDKGLPVTGIVDMRTYEALGLF | -0.46 |
| HMSLTEEQVDSGLKEIRLALLEADVALPVVKNFITNIKPKAIGQEIIRSTSPGQMIVKIVYDELVSIL | -0.0891 |
| HMDQSIDADIINLNFSKNIIKIEENVYYKNNNAKVNADKIEINIETKKLKISMNEQEDEVEIFAK | 0.283 |
| HMSHISLGQRYKIEGYLQINLKRTQIAKEIGLPKKTVNQEIKRNSNPQTGIYKAEEAHQLYLDRMQKKRK | -0.131 |
| HMKEVELENMIKAKGFKDAAVLVDERSVTVIVESERLAAGDSASIKELVSRGTGVDPQNVVII | -0.107 |
| HMQEEELYPRLEEVINQHRGKGEDLIMVLHKAQNLFGYLPRRAQEMVAEGLNVSLNEVYGVITFYNFFST | -0.0621 |
| HMTSDADSLRDKTGYVAEQVTSKGGKVNLYDGGFDSLYSARSTGETISTGTEIRVVDPGGGNMLVVEPV | 0.367 |
